Experimental data as given in article PMC6199259, “Structural and functional insights into the interaction and targeting hub TMD0 of the polypeptide transporter TAPL” (Scientific Reports, 2018).
Values belong to the compound of their own block, whether it stands above or below them.

What was measured:
coreTAPLmV = target: T1, coreTAPLmV (Homo sapiens, UniProt Q9NP78); details: 3 mM ATP, 3 uM RRYC(fluorescein)KSTEL, 3 mM MgCl2, pH 7.5, 37 °C, 15 min; with cf-TMD0-His co-reconstituted
T1 construct: gene ABCB9

TmrAB = target: T2, TmrAB (Thermus thermophilus, UniProt Q72J04+Q72J05); details: 3 mM ATP, 3 uM RRYC(fluorescein)KSTEL, 3 mM MgCl2, pH 7.5, 37 °C, 15 min; with cf-TMD0-His co-reconstituted
T2 construct: gene TT_C0976

[1] = target: cf-TMD0-His (M1 – P142), cell-free expressed (human) (UniProt Q9NP78); assay: SEC-MALS; 400 µg cf-TMD0-His on TSK-GEL G3000SWXL, 4 °C; 25 mM Na acetate, 300 mM NaCl, 0.7% c6-DHPC, pH 5.0; three-detector method (UV, refractive index, light scattering)
[2] = target: cf-TMD0-His S28C, MTSL labeled (human) (UniProt Q9NP78); assay: PELDOR (DEER) spectroscopy; MTSL labeled single cysteine cf-TMD0-His in c6-DHPC with 15–20% deuterated glycerol, frozen; Q-band (33.4 GHz), 50 K; modulation depth and distance distribution by Tikhonov regularization
[3] = target: cf-TMD0-His S138C, MTSL labeled (human) (UniProt Q9NP78); assay: as above

Compound: Nc1ncnc2c1ncn2[C@@H]1O[C@H](COP(=O)(O)OP(=O)(O)OP(=O)(O)O)[C@@H](O)[C@H]1O [ATP]
ATP-dependent peptide transport in proteoliposomes, fluorescence (coreTAPLmV): Functional reconstitution of coreTAPLmV as well as TmrAB into liposomes was demonstrated by ATP-dependent peptide transport
ATP-dependent peptide transport in proteoliposomes, fluorescence (TmrAB): Functional reconstitution of coreTAPLmV as well as TmrAB into liposomes was demonstrated by ATP-dependent peptide transport

stoichiometry N [1]: 2
Compound: cf-TMD0-His (M1 – P142), cell-free expressed (from UniProt Q9NP78 1-142) (domain or fragment)

stoichiometry N [2]: 2
Compound: cf-TMD0-His S28C, MTSL labeled (from UniProt Q9NP78 1-142) (domain or fragment)

stoichiometry N [3]: 2
Compound: cf-TMD0-His S138C, MTSL labeled (from UniProt Q9NP78 1-142) (domain or fragment)
